Legend:
[1] = target: T1, soluble tau (control tau; recombinant 2N4R tau, SEQ ID NO:31) (human, UniProt P10636 2-758); test: ELISA on coated soluble tau, anti-human Fc:HRP, 5-fold dilutions from 5 ug/ml
T1 construct: also called Sol-tau; recombinant WT tau
Procedure: Colonies from this electroporation were picked for the ELISA screen and assessment of Fab expression. Briefly, Maxisorp 96 well plates were coated with soluble Tau protein. Fab colonies were grown in 2×YT media and Fab expression was induced with IPTG. ELISA plates were washed and Fab secreted into the E. coli media was added to each ELISA plate. Plates were washed and Anti-Fab′2:HRP (Jackson ImmunoResearch) was added to the ELISA plates. Plates were washed and chemiluminescent detection reagent was added and plates were read on a Perkin Elmer EnVision plate reader for luminescence.
Positive clones were sequenced in both VH and VL. Unique sequences were cloned into IgG gene expression constructs for expression and purification as full length IgG1 molecules. IgG constructs were transfected into CHO-Expi cells and IgG protein was purified using MabSelectSure resin. Antibodies were then tested in an ELISA for binding to soluble Tau, using anti-human Fc:HRP (Jackson ImmunoResearch), to detect IgG binding.
The ELISA was done as described for Fabs except that antibodies were tested at five 5-fold dilutions starting at 5 μg/mL in PGS and anti-human Fc:HRP (Jackson ImmunoResearch) was used to detect IgG binding.

[2] = target: T1, soluble tau (control tau; recombinant …); test: direct ELISA on 2N4R tau coated at 10 ng/mL, O.D. 450 nm
Procedure: (§1) Binding to recombinant WT (2N4R; SEQ ID NO:31) tau was analyzed by ELISA where full-length Tau protein (1 ng/mL or 10 ng/mL) was directly coated to the plate and incubated with different concentrations of either recombinantly- or hybridoma produced PT82 antibody (FIG. 2). After incubation with antibodies, plates were again washed and 50 μL per well of HRPO labelled anti-mouse antibody (GE Healthcare) (diluted 1:10000 in blocking buffer) was added. After another washing step detection was performed with “One step” TMB (Thermo Scientific) according to the manufacturers' instructions. Plates were analysed in EnVision® 2102 Multilabel Reader (Perkin Elmer, Waltham, Mass., USA). Binding curves were generated using GraphPad Prism7.0 software. […] No substantial difference has been observed between binding profiles of recombinant and hybridoma produced antibodies.

[3] = target: T1, soluble tau (control tau; recombinant …); test: direct ELISA on 2N4R tau coated at 1 ng/mL, O.D. 450 nm
Procedure: as §1

[4] = target: T2, 117 136 …; test: pepscan-based ELISA on the array of linear 20-mer Tau441 peptides
T2 construct: Linear 20-mer made on the solid support of the pepscan array; also called Tau441 peptide 117-136
T2 peptide: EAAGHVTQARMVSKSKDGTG
Procedure: (§2) The binding of antibodies (recombinantly expressed as IgG2a) to each of the synthesized peptides was tested in a pepscan-based ELISA. The peptide arrays were incubated with primary antibody solution (overnight at 4° C.). After washing, the peptide arrays were incubated with a 1/1000 dilution of an appropriate antibody peroxidase conjugate (SBA) for one hour at 25° C. After washing, the peroxidase substrate 2,2′-azino-di-3-ethylbenzthiazoline sulfonate (ABTS) and 20 μl/ml of 3 percent H2O2 were added. After one hour, the color development was measured. The color development was quantified with a charge coupled device (CCD)—camera and an image processing system.

[5] = target: T3, 121 140 …; test: as above
T3 construct: Linear 20-mer made on the solid support of the pepscan array; also called Tau441 peptide 121-140
T3 peptide: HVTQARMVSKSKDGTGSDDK
Procedure: as §2

[6] = target: T4, 119 138 …; test: as above
T4 construct: Linear 20-mer made on the solid support of the pepscan array
T4 peptide: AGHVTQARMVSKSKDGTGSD
Procedure: as §2

[7] = target: T5, 113 132 …; test: as above
T5 construct: Linear 20-mer made on the solid support of the pepscan array; also called Tau441 peptide 113-132
T5 peptide: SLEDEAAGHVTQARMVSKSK
Procedure: as §2

[8] = target: T6, 115 134 …; test: as above
T6 construct: Linear 20-mer made on the solid support of the pepscan array; also called Tau441 peptide 115-134
T6 peptide: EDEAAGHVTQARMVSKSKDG
Procedure: as §2

[9] = target: T7, 111 130 …; test: as above
T7 construct: Linear 20-mer made on the solid support of the pepscan array; also called Tau441 peptide 111-130
T7 peptide: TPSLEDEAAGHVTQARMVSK
Procedure: as §2

[10] = target: T8, 109 128 …; test: as above
T8 construct: Linear 20-mer made on the solid support of the pepscan array; also called Tau441 peptide 109-128
T8 peptide: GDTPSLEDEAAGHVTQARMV
Procedure: as §2

[11] = target: T9, 107 126 …; test: as above
T9 construct: Linear 20-mer made on the solid support of the pepscan array; also called Tau441 peptide 107-126
T9 peptide: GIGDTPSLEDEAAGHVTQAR
Procedure: as §2

[12] = target: T10, 103 122 …; test: as above
T10 construct: Linear 20-mer made on the solid support of the pepscan array
T10 peptide: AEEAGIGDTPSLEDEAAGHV
Procedure: as §2

[13] = target: T11, 105 124 …; test: as above
T11 construct: Linear 20-mer made on the solid support of the pepscan array; also called Tau441 peptide 105-124
T11 peptide: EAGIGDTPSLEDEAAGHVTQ
Procedure: as §2

[14] = target: T12, PHF-tau (paired helical filament-tau), partially purified from postmortem cortex of an Alzheimer patient (human, UniProt P10636-8 2-441, limits assumed, hyperphosphorylated (sites not given)); test: SPR (ProteOn XPR36 or Biacore T200)
T12 construct: This is an aggregated, hyperphosphorylated brain-derived preparation, not a single defined chain
T12 sequence (P10636 other isoform, or with tags, fused parts or gaps limits assumed): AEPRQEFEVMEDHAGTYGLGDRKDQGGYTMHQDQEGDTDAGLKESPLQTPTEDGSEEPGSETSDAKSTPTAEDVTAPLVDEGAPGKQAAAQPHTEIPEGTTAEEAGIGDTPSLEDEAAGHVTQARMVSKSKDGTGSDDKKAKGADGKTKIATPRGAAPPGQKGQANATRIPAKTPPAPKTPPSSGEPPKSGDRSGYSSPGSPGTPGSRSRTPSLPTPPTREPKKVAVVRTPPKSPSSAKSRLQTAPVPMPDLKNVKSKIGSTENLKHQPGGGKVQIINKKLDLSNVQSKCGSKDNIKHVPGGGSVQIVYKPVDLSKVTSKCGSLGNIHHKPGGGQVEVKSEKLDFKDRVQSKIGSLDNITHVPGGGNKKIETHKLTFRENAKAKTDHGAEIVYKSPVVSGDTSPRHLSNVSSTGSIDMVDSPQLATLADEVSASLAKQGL

[15] = target: T1, soluble tau (control tau; recombinant …); test: SPR (ProteOn XPR36 or Biacore T200); central value of the cell

T1 sequence (P10636 other isoform, or with tags, fused parts or gaps limits assumed): as above

B1: PT1B779 (humanized PT82, full length IgG1) (antibody, V domains shown)
VH: EVQLVESGGGLVQPGGSLRLSCAASGFTFSNYWMNWIRQAPGKGLEWVGQIRLQDDNYATRYAASVKGRFTISRDDSKNSVYLQMNSLKTEDTAVYYCTGGTTYWGQGTLVTVSS
VL: DIQMTQSPSFLSASVGDRVTITCKASQNVGTKVAWYQQKPGKAPKLLIYSASIRYTGVPSRFSGSGSGTEFTLTISSMQPEDFATYYCQQFSSYPYTFGQGTKLEIK
Question: Does B1 bind [1]?
Answer: Result: binds

B2: PT1B778 (humanized PT82, full length IgG1) (antibody, V domains shown)
VH: EVQLVESGGGLVQPGGSLRLSCAASGFTFSNYWMNWIRQAPGKGLEWVGQIRLQSDNYVTRYAASVKGRFTISRDDSKNSVYLQMNSLKTEDTAVYYCTGGTTYWGQGTLVTVSS
VL: DIQMTQSPSFLSASVGDRVTITCKASQNVGTRVAWYQQKPGKAPKLLIYSASIRYTGVPSRFSGSGSGTEFTLTISSMQPEDFATYYCQQFSSYPYTFGQGTKLEIK
Question: Does B2 bind [1]?
Answer: Result: binds

B3: PT1B780 (humanized PT82, full length IgG1) (antibody, V domains shown)
VH: EVQLVESGGGLVQPGGSLRLSCAASGFTFSNYWMNWIRQAPGKGLEWVGQIRLQSDNYATRYAASVKGRFTISRDDSKNSLYLQMNSLKTEDTAVYYCTGGTTYWGQGTLVTVSS
VL: DIQMTQSPSFLSASVGDRVTITCKASQNVGTKVAWYQQKPGKAPKLLIYSASIRYTGVPSRFSGSGSGTEFTLTISSLQPEDFATYYCQQFSSYPYTFGQGTKLEIK
Question: Does B3 bind [1]?
Answer: Result: binds

B4: PT1B782 (humanized PT82, full length IgG1) (antibody, V domains shown)
VH: EVQLVESGGGLVQPGGSLRLSCAASGFTFSNYWMNWIRQAPGKGLEWVGQIRLQYDNYATRYAASVKGRFTISRDDSKNSVYLQMNSLKTEDTAVYYCTGGTTYWGQGTLVTVSS
VL: DIQLTQSPSFLSASVGDRVTITCKASQNVGTKVAWYQQKPGKAPKLLIYSASIRYTGVPSRFSGSGSGTEFTLTISSMQPEDFATYYCQQFSSYPYTFGQGTKLEIK
Question: Does B4 bind [1]?
Answer: Result: binds

B5: PT1B781 (humanized PT82, full length IgG1) (antibody, V domains shown)
VH: EVQLVESGGGLVQPGGSLRLSCAASGFTFSNYWMNWIRQAPGKGLEWVGQIRLQRDNYATRYAASVKGRFTISRDDSKNSVYLQMNSLKTEDTAVYYCTGGTTYWGQGTLVTVSS
VL: DIQMTQSPSFLSASVGDRVTITCKASQNVGTKVAWYQQKPGKAPKLLIYSASIRYTGVPSRFSGSGSGTEFTLTISSMQPEDFATYYCQQFSSYPYTFGQGTKLEIK
Question: Does B5 bind [1]?
Answer: Result: binds

B6: PT82 mAb, recombinantly expressed (mouse IgG2a/kappa) (antibody, V domains shown)
VH: EVKLEESGGGLVQPGGSMKLSCVASGFTFSNYWMNWIRQSPEKGLEWVAQIRLQSDNYATRYAESVKGRFTISRDESKTSVYLQMNNLRTEDTGIYYCTGGTTYWGQGTLVTVSA
VL: DIVMTQSQKFMSTSVGDRVSITCKASQNVGTAVAWYQQKPGQSPKLLIYSASIRYTGVPDRFTGSGSGTDFTLTINYMQSEDLADYFCQQFSSYPYTFGGGTKLEIK
notes: also called recombinant PT82; murine PT82
Question: B6 was tested. Which “EC50 (read off the curve)” value [2] did it give?
Answer: Its value is ~0.01 µg/mL.

Question: What about the “EC50 (read off the curve)” value [3] of the same binder?
Answer: The value was ~0.05 µg/mL.

Question: What about the “pepscan ELISA signal (PT82)” value [4] of the same binder?
Answer: The value was 2920.

Question: What about the “pepscan ELISA signal (PT82)” value [5] of the same binder?
Answer: The value was 68.

Question: And the “pepscan ELISA signal (PT82)” value [6]?
Answer: Its value is 2910.

Question: And the “pepscan ELISA signal (PT82)” value [7]?
Answer: Its value is 2930.

Question: What about the “pepscan ELISA signal (PT82)” value [8] of the same binder?
Answer: The value was 2920.

Question: And the “pepscan ELISA signal (PT82)” value [9]?
Answer: The value was 2930.

Question: What about the “pepscan ELISA signal (PT82)” value [10] of the same binder?
Answer: The value was 2920.

Question: What about the “pepscan ELISA signal (PT82)” value [11] of the same binder?
Answer: Its value is 2920.

Question: And the “pepscan ELISA signal (PT82)” value [12]?
Answer: Its value is 68.

Question: What about the “pepscan ELISA signal (PT82)” value [13] of the same binder?
Answer: Its value is 2900.

Question: And the Kd [14]?
Answer: Its Kd is 2.85 nM.

B7: PT82 from hybridoma supernatant (hybridoma-produced mouse monoclonal antibody) (antibody, V domains shown)
VH: EVKLEESGGGLVQPGGSMKLSCVASGFTFSNYWMNWIRQSPEKGLEWVAQIRLQSDNYATRYAESVKGRFTISRDESKTSVYLQMNNLRTEDTGIYYCTGGTTYWGQGTLVTVSA
VL: DIVMTQSQKFMSTSVGDRVSITCKASQNVGTAVAWYQQKPGQSPKLLIYSASIRYTGVPDRFTGSGSGTDFTLTINYMQSEDLADYFCQQFSSYPYTFGGGTKLEIK
notes: This is the native hybridoma antibody; also called hybridoma produced PT82
Question: Which results are given for B7?
Answer: EC50 (read off the curve) [2]: ~0.004 µg/mL; EC50 (read off the curve) [3]: ~0.02 µg/mL

B8: PT82 Fab (chimeric: mouse variable domains on human IgG1/kappa constant domains, His tag at the C-terminus of the heavy chain) (Fab, V domains shown)
VH: EVKLEESGGGLVQPGGSMKLSCVASGFTFSNYWMNWIRQSPEKGLEWVAQIRLQSDNYATRYAESVKGRFTISRDESKTSVYLQMNNLRTEDTGIYYCTGGTTYWGQGTLVTVSA
VL: DIVMTQSQKFMSTSVGDRVSITCKASQNVGTAVAWYQQKPGQSPKLLIYSASIRYTGVPDRFTGSGSGTDFTLTINYMQSEDLADYFCQQFSSYPYTFGGGTKLEIK
notes: The Fab has mouse variable domains fused to human IgG1/kappa constant domains, with a His tag at the C-terminus of the heavy chain; also called Fab fragment of PT82
Question: Which Kd [15] does the source give for B8 here?
Answer: The Kd was 1.84 nM.

Question: And the Kd [14]?
Answer: Its Kd is 5.01 nM.

— US20190270793A1 (Janssen / Centocor, published 2019)
